From article PMC11603662

Columns and labels:
[1] = biological target: CaV2.1-F1406C (human); assay: co-IP; HEK293T cells coexpressing the two proteins, 10 uM MG132 for 24 h; lysates immunoprecipitated with anti-Myc on protein A/G sepharose, 16 h at 4 C; immunoblot
[2] = biological target: Myc-tagged human long carboxy-terminal CaV2.1 (CaV2.1-6myc) (human) (UniProt O00555); assay: as above

CaV2.1-F1406C (human), sequence (O00555 whole entry, stated change not applied): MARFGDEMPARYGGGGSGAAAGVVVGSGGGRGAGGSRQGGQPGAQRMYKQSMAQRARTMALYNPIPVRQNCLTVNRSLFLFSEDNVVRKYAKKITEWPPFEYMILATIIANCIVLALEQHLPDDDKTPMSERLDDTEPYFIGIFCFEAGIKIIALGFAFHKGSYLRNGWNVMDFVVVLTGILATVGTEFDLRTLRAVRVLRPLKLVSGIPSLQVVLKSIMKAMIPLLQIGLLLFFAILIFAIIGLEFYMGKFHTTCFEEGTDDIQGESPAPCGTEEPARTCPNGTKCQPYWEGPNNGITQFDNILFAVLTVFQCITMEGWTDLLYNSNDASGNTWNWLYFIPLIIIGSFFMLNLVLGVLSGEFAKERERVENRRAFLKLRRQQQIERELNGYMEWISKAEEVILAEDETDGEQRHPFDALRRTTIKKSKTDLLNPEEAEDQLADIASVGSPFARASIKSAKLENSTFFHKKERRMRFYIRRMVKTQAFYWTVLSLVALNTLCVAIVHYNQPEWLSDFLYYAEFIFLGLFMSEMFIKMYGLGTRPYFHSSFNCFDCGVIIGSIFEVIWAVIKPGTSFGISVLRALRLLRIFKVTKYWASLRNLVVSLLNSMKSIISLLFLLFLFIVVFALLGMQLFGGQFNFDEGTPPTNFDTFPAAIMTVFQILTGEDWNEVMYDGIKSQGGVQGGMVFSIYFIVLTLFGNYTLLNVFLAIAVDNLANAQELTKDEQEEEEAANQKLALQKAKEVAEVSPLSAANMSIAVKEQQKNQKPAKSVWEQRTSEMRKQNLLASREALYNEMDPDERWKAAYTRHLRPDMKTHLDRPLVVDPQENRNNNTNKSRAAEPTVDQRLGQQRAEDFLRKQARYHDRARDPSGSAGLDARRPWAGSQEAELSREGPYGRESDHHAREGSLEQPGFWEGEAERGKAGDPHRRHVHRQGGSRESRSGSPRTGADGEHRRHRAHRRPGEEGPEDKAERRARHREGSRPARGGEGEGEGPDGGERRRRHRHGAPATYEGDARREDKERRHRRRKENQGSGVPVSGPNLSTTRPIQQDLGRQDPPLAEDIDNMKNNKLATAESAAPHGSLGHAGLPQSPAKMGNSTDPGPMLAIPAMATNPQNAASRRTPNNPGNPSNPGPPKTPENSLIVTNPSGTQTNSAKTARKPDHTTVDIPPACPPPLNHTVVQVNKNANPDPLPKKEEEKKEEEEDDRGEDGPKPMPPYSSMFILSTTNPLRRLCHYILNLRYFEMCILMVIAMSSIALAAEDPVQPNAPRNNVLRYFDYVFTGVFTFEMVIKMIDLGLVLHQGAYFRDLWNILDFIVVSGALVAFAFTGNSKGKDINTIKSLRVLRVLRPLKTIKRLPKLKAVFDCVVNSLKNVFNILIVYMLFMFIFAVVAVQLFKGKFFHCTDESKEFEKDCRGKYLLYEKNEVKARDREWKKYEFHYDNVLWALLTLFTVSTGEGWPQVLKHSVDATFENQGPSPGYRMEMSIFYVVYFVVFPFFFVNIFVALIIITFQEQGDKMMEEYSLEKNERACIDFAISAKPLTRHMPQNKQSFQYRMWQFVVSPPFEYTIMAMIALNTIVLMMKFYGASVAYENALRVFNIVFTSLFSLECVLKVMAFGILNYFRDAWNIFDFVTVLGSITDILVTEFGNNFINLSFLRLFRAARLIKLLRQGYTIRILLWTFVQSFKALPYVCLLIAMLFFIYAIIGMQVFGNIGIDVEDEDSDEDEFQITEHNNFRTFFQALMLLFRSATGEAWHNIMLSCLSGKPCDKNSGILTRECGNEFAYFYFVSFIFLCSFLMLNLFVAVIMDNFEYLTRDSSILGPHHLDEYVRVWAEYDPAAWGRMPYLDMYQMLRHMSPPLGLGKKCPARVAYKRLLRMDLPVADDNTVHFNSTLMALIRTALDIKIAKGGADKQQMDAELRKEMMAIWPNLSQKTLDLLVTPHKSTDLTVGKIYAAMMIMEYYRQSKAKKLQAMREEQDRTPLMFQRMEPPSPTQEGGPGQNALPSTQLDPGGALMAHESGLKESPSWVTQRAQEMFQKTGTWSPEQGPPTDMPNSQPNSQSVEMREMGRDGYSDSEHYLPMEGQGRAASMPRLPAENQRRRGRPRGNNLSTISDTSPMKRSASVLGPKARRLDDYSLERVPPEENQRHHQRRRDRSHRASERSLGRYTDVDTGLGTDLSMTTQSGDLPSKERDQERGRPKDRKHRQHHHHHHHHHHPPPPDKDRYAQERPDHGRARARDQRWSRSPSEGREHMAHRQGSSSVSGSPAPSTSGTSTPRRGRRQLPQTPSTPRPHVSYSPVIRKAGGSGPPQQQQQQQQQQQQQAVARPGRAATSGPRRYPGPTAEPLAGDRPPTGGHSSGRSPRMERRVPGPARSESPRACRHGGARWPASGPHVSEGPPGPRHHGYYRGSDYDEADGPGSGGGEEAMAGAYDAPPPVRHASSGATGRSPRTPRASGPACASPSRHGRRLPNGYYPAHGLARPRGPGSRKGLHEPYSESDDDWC

- normalized coimmunoprecipitated Pin1 protein level (relative to CaV2.1 WT) [1]: 1.32
- normalized coimmunoprecipitated Pin1 protein level (relative to CaV2.1 WT) [2]: 1
Substance: HA-tagged rat Pin1 (HA-Pin1) (enzyme)
